US20110269113A1 (University of Pennsylvania, published 2011)
Blank lines part the entries; values can stand above or below the molecule they belong to. Bridges are numbered along the chain shown (N, C = ends).

What was measured:
[1] = target: C5a receptor (C5aR) (human) (UniProt P21730); test: cell-based or functional assay
[2] = target: complement component C3 (native C3) (human, UniProt P01024 23-1663); test: cell-based or functional assay
Chain of complement component C3 (native C3) (P01024 23-1663 limits assumed): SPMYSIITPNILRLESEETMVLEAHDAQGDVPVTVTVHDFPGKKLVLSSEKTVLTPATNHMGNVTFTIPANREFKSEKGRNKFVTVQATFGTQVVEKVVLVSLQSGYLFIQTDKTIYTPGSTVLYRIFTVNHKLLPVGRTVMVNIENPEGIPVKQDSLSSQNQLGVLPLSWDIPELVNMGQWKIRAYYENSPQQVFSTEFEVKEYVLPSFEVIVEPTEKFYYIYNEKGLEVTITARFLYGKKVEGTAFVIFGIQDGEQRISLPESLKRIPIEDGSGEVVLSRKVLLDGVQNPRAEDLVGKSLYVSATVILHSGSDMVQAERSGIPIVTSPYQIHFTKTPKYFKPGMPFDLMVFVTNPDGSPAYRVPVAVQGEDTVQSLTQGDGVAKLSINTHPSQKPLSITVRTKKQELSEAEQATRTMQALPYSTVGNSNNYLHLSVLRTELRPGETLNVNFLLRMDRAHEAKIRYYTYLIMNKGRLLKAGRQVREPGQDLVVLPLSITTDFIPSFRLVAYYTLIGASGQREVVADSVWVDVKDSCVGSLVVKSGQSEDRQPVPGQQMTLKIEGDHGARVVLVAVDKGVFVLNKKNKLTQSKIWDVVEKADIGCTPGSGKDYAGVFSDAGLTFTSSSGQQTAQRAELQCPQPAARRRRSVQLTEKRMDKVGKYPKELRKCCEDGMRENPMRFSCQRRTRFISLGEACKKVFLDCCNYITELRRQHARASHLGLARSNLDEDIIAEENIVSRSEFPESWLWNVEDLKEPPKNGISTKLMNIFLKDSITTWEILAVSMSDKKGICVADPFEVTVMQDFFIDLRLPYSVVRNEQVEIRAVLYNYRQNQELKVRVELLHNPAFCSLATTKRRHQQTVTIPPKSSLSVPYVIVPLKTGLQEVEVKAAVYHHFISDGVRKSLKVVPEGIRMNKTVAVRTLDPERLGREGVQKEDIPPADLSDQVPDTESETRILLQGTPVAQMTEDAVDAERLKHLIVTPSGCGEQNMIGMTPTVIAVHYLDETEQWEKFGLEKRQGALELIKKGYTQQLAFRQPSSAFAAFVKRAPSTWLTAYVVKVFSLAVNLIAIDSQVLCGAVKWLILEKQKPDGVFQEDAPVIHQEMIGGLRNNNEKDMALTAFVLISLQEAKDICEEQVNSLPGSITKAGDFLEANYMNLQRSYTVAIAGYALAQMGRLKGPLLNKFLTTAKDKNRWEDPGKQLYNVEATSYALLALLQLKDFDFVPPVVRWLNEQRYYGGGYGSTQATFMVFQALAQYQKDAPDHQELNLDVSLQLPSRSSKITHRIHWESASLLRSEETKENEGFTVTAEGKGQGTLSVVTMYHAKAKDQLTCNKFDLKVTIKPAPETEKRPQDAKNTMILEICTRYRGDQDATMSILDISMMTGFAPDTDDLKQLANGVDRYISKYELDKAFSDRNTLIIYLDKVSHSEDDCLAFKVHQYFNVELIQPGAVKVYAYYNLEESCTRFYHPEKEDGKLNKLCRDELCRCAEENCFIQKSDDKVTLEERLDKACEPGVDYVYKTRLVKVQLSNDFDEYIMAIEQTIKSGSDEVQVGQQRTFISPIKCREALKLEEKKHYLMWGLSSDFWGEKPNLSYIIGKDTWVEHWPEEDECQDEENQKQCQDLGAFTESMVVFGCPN

Chain of C5a receptor (C5aR) (human) (P21730 whole entry): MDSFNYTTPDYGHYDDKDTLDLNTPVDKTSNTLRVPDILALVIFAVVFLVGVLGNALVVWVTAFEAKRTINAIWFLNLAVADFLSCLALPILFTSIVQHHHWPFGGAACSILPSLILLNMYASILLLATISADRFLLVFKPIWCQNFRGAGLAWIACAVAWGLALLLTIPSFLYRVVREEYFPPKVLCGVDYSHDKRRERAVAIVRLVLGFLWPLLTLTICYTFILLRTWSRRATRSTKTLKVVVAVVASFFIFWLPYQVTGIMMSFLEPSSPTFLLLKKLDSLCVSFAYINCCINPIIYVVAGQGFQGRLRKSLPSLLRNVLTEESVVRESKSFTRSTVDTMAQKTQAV

TF mRNA expression in PMNs (real time RT-PCR) after C5aR antagonism (fold decrease) [1]: 2.14
modified prothrombin time (mPT) of PMN supernatants; healthy serum preincubated with filter fibers, with C5aR antagonist [1]: 29.1 s
modified prothrombin time (mPT) of PMN supernatants; predialysis ESRD serum preincubated with filter fibers, with C5aR antagonist [1]: 26.1 s
modified prothrombin time (mPT) of supernatants of PMNs preincubated with C5aR antagonist (10 µM-30 min) [1]: 31.6 s
Molecule: small cyclic hexapeptide (AcF-[OPdChaWR]), selective C5aR antagonist

TF mRNA expression in PMNs (real time RT-PCR) after Compstatin addition [2]: 2.79 fold decrease
intracellular TF protein in PMNs, MFI fold expression (flow cytometry); fiber-activated healthy serum blocked with Compstatin [2]: 1.01 MFI fold expression
B1: Compstatin, a 13-residue cyclic peptide (Ac-I[CVWQDWGAHRTC]TNH2) (peptide)
peptide: Ac-ICVWQDWGAHRTCT-NH2
modifications: disulfide 2-13
SMILES: CC[C@H](C)[C@H](NC(C)=O)C(=O)N[C@H]1CSSC[C@@H](C(=O)N[C@H](C(N)=O)[C@@H](C)O)NC(=O)[C@H]([C@@H](C)O)NC(=O)[C@H](CCCNC(=N)N)NC(=O)[C@H](Cc2c[nH]cn2)NC(=O)[C@H](C)NC(=O)CNC(=O)[C@H](Cc2c[nH]c3ccccc23)NC(=O)[C@H](CC(=O)O)NC(=O)[C@H](CCC(N)=O)NC(=O)[C@H](Cc2c[nH]c3ccccc23)NC(=O)[C@H](C(C)C)NC1=O
